# From patent US20240254225A1 (INOTREM, published 2024)
# Positions count from the first letter of the chain named.
# T1: recombinant cynomolgus monkey TREM-1 (cynomolgus monkey, UniProt A0A2K5VHG8 21-204)
# T1 construct: Soluble recombinant protein injected as SPR analyte; construct not described; also called cTREM-1; cynomolgus TREM-1
# T1 sequence: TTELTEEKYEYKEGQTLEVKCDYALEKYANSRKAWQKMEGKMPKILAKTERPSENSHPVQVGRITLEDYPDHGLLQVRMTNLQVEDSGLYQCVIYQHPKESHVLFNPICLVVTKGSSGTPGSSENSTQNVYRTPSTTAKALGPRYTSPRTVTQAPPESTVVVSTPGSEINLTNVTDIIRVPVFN
# B1: humanized anti-TREM-1 Fab fragment INO-10F-4 (Fab, V domains shown)
# VH: EVQLVESGGALVKPGGSLRLSCAASGFNIGNTYIHWVRQAPGKGLEWVGRIDPAGGRTKYAPKVKGRFTISADDSKNTAYLQMNSLKTEDTAVYYCTGHRGGTMDYWGQGTLVTVSS
# VL: EIVLTQSPATLSLSPGERATLSCRASQSVSNYGISFLNWYQQKPGQAPRLLIYAAEYRGRGIPARFSGSGSGTDFTLTISSLEPEDFAVYYCQQSSNVPYTFGQGTKVEIK
# notes: Fab
# B2: humanized anti-TREM-1 Fab fragment INO-10F-3 (Fab, V domains shown)
# VH: B1 VH with G30D, V48I, A61D, D74T, R100Y
# VL: B1 VL with Q27E, S30D, S96R, N97H
# notes: Fab
# B3: humanized anti-TREM-1 Fab fragment INO-10F-6 (Fab, V domains shown)
# VH: B1 VH with A79L
# VL: B1 VL with G59A
# notes: Fab
# B4: anti-hTREM-1 Fab fragment INO-10F (Fab, V domains shown)
# VH: AVQLQQSVAALVRPGASVKLSCTASGFNIKNTYIHWVKQRPEQGLEWIGRIDPANGNTKYAPKFQGKATITADTSSDTAYLQLSSLTSDDTAIYYCTGHYGSTMDYWGQGTSVTVSS
# VL: not shown
# notes: Recombinant chimeric Fab (murine variable regions) made in CHO cells and purified on HisTrap Excel; also called INO-10 Fab
# B5: humanized anti-TREM-1 Fab fragment INO-10F-2 (Fab, V domains shown)
# VH: B1 VH with V48I, A61S, K65Q, D73P, D74T
# VL: B1 VL with E56S, R58Q, G59K, V98F, Y100W
# notes: Fab
# Target: T1, recombinant cynomolgus monkey TREM-1
# Test: SPR, Fab immobilised, cynomolgus TREM-1 injected; replicate 1
# Protocol: (§1) Surface plasmon resonance (SPR): in order to evaluate the interaction kinetics for TREM-1 antibodies or Fabs to hTREM-1 (human TREM-1) and cTREM-1 (cynomolgus monkey TREM-1), surface plasmon resonance (SPR) assays were carried out (Biacore™ T200, GE Healthcare Biosciences). The anti-human Fc antibodies (Cytiva) were immobilized on CM5 sensor chip in order to evaluate IgG1 affinities and Fabs were directly immobilized on the chip. Immobilization experiments were performed at 25° C. using HBS-EP+1× running buffer (10 mM HEPES, 150 mM NaCl, 3 mM EDTA, 0.05% surfactant P20, pH 7.4). The anti-human Fc antibodies or Fabs were diluted in 10 mM sodium acetate at acidic pH before the immobilization procedure using amine coupling on the dextran matrix of the sensor chips. […] Following these injections, ethanolamine was injected to deactivate the surface. The immobilization wizard was used to obtain several thousand of immobilized RU (resonance units). The immobilization level was chosen in order to have a proper covering of the sensor chip surface. […] Binding of hTREM-1 or cTREM-1 proteins was conducted by injecting analyte over all flow cells. […] The concentrations were evaluated using the Single Cycle Kinetics method. This approach consists of a sequential injection of increasing concentration of the analyte, with a single regeneration step using a magnesium chloride buffer (Cytiva) at the end of the cycle. Binding affinity of TREM-1 antibodies or Fabs with hTREM-1 or cTREM-1 was quantified by determination of the equilibrium dissociation constant (KD) determined by measurement of the kinetics of complex formation and dissociation.
row,Binder,Kd
1,B1,24.8 nM
2,B2,7.6 nM
3,B3,60.1 nM
4,B4,57.9 nM

# Target: T1, recombinant cynomolgus monkey TREM-1
# Test: SPR, Fab immobilised, cynomolgus TREM-1 injected; replicate 2
# Protocol: as §1
row,Binder,Kd
1,B1,24.4 nM
2,B5,28.5 nM
3,B2,7.68 nM
4,B3,53.4 nM
5,B4,66.6 nM

# Target: T1, recombinant cynomolgus monkey TREM-1
# Test: SPR, Fab immobilised, cynomolgus TREM-1 injected; average
# Protocol: as §1
row,Binder,Kd
1,B1,24.6 nM
2,B5,28.3 nM
3,B2,7.64 nM
4,B3,56.8 nM
5,B4,62.2 nM
